Values quoted from earlier work as cited in publication PMC5811392.

Assays:
p53 (Homo sapiens) = p53 (Homo sapiens) (UniProt P04637)
p53 DBD (Homo sapiens) = p53 DBD (Homo sapiens) (UniProt P04637)
Sequence of p53 DBD (Homo sapiens) (P04637 94-312): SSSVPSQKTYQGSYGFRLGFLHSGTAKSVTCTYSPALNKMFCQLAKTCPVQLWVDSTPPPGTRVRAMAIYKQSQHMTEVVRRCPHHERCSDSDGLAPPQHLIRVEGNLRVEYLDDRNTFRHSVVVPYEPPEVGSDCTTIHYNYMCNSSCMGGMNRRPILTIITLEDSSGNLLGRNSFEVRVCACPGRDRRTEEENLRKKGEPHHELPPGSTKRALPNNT

Sequence of BCL-xL (Q07817 whole entry): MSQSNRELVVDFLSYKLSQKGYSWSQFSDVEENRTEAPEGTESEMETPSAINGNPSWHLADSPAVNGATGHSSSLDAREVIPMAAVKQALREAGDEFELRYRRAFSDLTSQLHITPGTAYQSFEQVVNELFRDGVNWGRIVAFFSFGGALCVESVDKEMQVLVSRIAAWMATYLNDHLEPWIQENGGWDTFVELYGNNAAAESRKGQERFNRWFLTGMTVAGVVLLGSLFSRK
Sequence of p53 (Homo sapiens) (P04637 whole entry): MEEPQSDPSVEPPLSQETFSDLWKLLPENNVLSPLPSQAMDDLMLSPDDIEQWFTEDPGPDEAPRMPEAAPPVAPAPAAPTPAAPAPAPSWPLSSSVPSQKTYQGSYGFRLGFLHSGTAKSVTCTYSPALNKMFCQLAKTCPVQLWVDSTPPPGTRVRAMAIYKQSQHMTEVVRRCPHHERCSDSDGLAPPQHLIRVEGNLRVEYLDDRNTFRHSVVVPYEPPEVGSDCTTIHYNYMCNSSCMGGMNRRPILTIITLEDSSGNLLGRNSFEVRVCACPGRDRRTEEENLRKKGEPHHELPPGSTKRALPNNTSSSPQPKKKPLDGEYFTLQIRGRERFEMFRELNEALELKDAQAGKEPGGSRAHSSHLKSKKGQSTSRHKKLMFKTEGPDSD

Kd (p53 (Homo sapiens)): 1 µM
Kd (p53 DBD (Homo sapiens)): 17 µM
Substance: BCL-xL (from UniProt Q07817)
